B1: compound DOTA-Nle-[Cys-Pro-Pro-Thr-Glu-Phe-Cys]-Asp-NH2 (1004) (peptide)
peptide: CPPTEFCD
HELM: PEPTIDE1{[O=C(O)CN1CCN(CC(=O)O)CCN(CC(=O)[*:2])CCN(CC(=O)O)CC1].[Nle].C.P.P.T.E.F.C.D.[am]}$PEPTIDE1,PEPTIDE1,3:R3-9:R3$$$V2.0
SMILES: CCCC[C@H](NC(=O)CN1CCN(CC(=O)O)CCN(CC(=O)O)CCN(CC(=O)O)CC1)C(=O)N[C@H]1CSSC[C@@H](C(=O)N[C@@H](CC(=O)O)C(N)=O)NC(=O)[C@H](Cc2ccccc2)NC(=O)[C@H](CCC(=O)O)NC(=O)[C@H]([C@@H](C)O)NC(=O)[C@@H]2CCCN2C(=O)[C@@H]2CCCN2C1=O

The text below walks through data of patent publication US20240115745A1, “COMPOUNDS COMPRISING A FIBROBLAST ACTIVATION PROTEIN LIGAND AND USE THEREOF” (3B PHARMACEUTICALS GMBH, priority 2021, published 2024).

Bridges are numbered along the chain shown (N, C = ends). [ ]: non-standard residue; d: D form. The star is where a group is joined. mli = maleimide cyclization element: 3,4-maleimide inserted symmetrically, forming a vinyl thioether with each Cys sulfur; Ttds = 1,13-diamino-4,7,10-trioxatridecan-succinamic acid, NCCCOCCOCCOCCCNC(=O)CCC(=O)*; mli(DOTA-Ttd) = 3,4-N-(DOTA-Ttd)-maleimide bridging two Cys S atoms as vinyl thioethers; DOTA = O=C(O)CN1CCN(CC(=O)O)CCN(CC(=O)*)CCN(CC(=O)O)CC1; Nle = CCCC[C@H](N)C(=O)O; Hexanoyl = CCCCCC(=O)* Bounds are passed on as bounds.

The target of the assay is fibroblast activation protein (FAP) on FAP-expressing human WI-38 fibroblasts (human), Q12884. As to the kind of experiment: competitive FACS on WI-38 cells vs 3 nM Cy5-labeled probe; A = pIC50 >7.0. The note with it: remark: other sources report otherwise.
In turn, {DOTA-Ttds}-[Nle]CPPTEFCD-NH2 (disulfide 2-8) [compound DOTA-Ttds-Nle-[Cys-Pro-Pro-Thr-Glu-Phe-Cys]-Asp-NH2 (1003)] registered a pIC50 Category (FACS) greater than 7 pIC50.

Take {DOTA-Ttds}-[Nle]CPPTEFCD-NH2 (linker 2-8 via mli) [compound DOTA-Ttds-Nle-[Cys(mli)-Pro-Pro-Thr-Glu-Phe-Cys]-Asp-NH2 (2007)]: the pIC50 Category (FACS) was greater than 7 pIC50.

The molecule Hexanoyl-CPPTEFCD-NH2 (linker 1-7 via mli(DOTA-Ttd)) [compound Hex-[Cys(mli(DOTA-Ttd))-Pro-Pro-Thr-Glu-Phe-Cys]-Asp-NH2 (2020)] registered a pIC50 Category (FACS) greater than 7 pIC50.

B1: the pIC50 Category (FACS) is greater than 7 pIC50.
